In the DeepSol protein solubility set:

Assay: soluble on expression in E. coli; label from the status in PepcDB or PDB records

Sequence	soluble on expression in E. coli
MSLGKGEKFQIEFVSANPTGDLHLGHARGAAIGDSLANIMKMAGFDVSREYYINDAGNQINNLVLSAEARYFEALGLDSEFPEDGYRGADIISLGKDLAAKYGDKYVHTSEEERRSVFRVDALAFETGKLRADLEEFRVSFDEWFSETSLYEENKVLPALERLRENGYIYEQDGATWLRTTDFEDDKDRVLIKSDGSYTYFLPDIAYHLNKLERGFDVLIDIWGADHHGYIPRMRAAIEALGYSPNQLEVEIIQLVHLFEDGVQVKMSKRTGKSVTMRDLIEEVGLDATRYFFAMRSSDTHMNFDMSLAKSTSNDNPVYYVQYAHARISSILRSGKEQGLEVTKDADMSLLQTEAEYDLLKVLGEFADVVAEAATKRAPHRIVRYLNDLASSFHRFYNSNKVLDMDNLEVTKARLALIKTAQITLRNGLTLLGVSAPEKEGHHHHHH	not soluble
MSLGKKLKIFFIDDDIALGHICTRIMQEEGYEVLYQTSLNGAKACIVETHPDMIVLDVEIGNKNGIEAVPELKAIAPNTPILFISSHTNSQLVVQALSAGAVAYLKKPLEIDELIAYIKRYAISHPYQIKIGSLLLDTDTQLLCTKELRVIKQLSEAEYKLLKLLVAYKEQLVERRQIEEELWGKVNGNEQGINNLISKLRKYLSIDPTIELVTIPRNGYKLSVNLSEGHHHHHH	soluble
MSLGKLFGTDGIRGVTNTELQPEFALKIGKAIGTYFGKGARILIGRDVRAGGDMLLKAVESGLLSSGVLVYEAGMAPTPAFQYGVKALGYDGGVIITASHNPAEYNGIKVLSPHGIEISREDEDKIEDIYFNSRFHVVEWNGLVNDVKREDKVIETYLRGILSHVDTEKIKSKKYKVLIDPANSVGTLVTPIVARELGCKVFTINGNLDPLFSARTPEPTFESLTESAKVAKQLGVDLAVAHDGDADRAIFIDSMGRVQWGDRSGTLLSYWASVKAPNLPRRIFTAVSSSSLVEEYLKKYNIEVKWTKVGSIDIAHMLFKEKGVAGFEENGGFMYPPHQTVRDGAMSFALMLDMMASENESSAELFNRLPVYYLVKTKVRVTEKSDIKKIYDEVMNKYGNYGNTVTIDGVKIIGSDFWLLVRKSGTEPIIRILVEAKDENKSKELAKELEKLVSELVEGHHHHHH	soluble
MSLGLIVQKFGGTSVGSVEKIQNAANRAIAEKQKGHQVVVVVSAMGKSTDELVSLAKAISDQPSKREMDMLLATGEQVTISLLSMALQEKGYDAVSYTGWQAGIRTEAIHGNARITDIDTSVLADQLEKGKIVIVAGFQGMTEDCEITTLGRGGSDTTAVALAAALKADKCDIYTDVPGVFTTDPRYVKSARKLEGISYDEMLELANLGAGVLHPRAVEFAKNYQVPLEVRSSTETEAGTLIEEESSMEQNLIVRGIAFEDQITRVTIYGLTSGLTTLSTIFTTLAKRNINVDIIIQTQAEDKTGISFSVKTEDADQTVAVLEEYKDALEFEKIETESKLAKVSIVGSGMVSNPGVAAEMFAVLAQKNILIKMVSTSEIKVSTVVSENDMVKAVESLHDAFELSKHPSAVEGHHHHHH	soluble
MSLGMTHSFITEWDNTPKTKMRFSREVSFAELQRVTNCMAKHEIPSIEDFIWVLKEAAKVLSTLPNNVHVIPEPNDRLIFVGDLHGCFETLIRLFLGYPQQNIPRTGFPGEIVDGRRLVYFFNGDFVDRGGSGYQIVFLLAYMAIACPGSCYLNRGNHESEMFGLSTQGMLGNKFMSEMAGKFSGMDPETYRPAIGEFFCALPIAHTIDRNIFMVHGGVPLGDDLSNVPRAAPQSYFSTGSPAPIPKGLKPYKISNLDNLTPSRQKTTNFEDNPRKQNELWHSFVWNYDRLPYSADFMEENNFKTMVHSHTATPFHQITSFLPLEKTSGEKYSIQSVIKNQEMFDRMKAFFASHQLANSSKLSILEIFSSPTEGHHHHHH	not soluble
MSLGNDNEKSTTKTSPDKIKFLETSELLTLNTTAEEDFASFTAQNQVFEGLYTLDQKDNFVPGVAGGMPEISADQTKYTIKLKKNAKWSDGSQVTADDFVYAWRRAVDPKTAPGYSALFKDSIKNATEINEGKLPVTDLGVVATDPTTLEITLKKPVPYFISLLSFETFFPQKESFVKKQGDKYGTDSAHTLYNGPFVMKDWGGNITNKWTYAKNDQYWDKDNVKVNEIDVQVAKDINAGVNLYNTNEADRVPLSGDFAKQYKDKKDFQTEKDALISYLRMNQKRDGKATPLANNSLRHALNLAVDKKQLTDRILGDGSFPANGLLPKDFVQNPTTGADFRTDSGDHLVYNKEEALKYWKQAQKELGTDKVTIELLGDDQETTKTIFAYLKAQFEDNLPGVTIKVKNMPSKSATQLTSDGNYDLSLAAWMPDFKDPWTYSSLFLSDYFNNHMSYNSPAYDRLVKSTDTTLATKPEERWNAFVASEKVLLDDDAAILPLYQHQTAVLQRTDITGVQKHAFGSPYSYKFIRVEKEGHHHHHH	soluble
MSLGRFKTLLNQEDYLILHGALGTELEFLGYDVSGKLWSAKYLLENPSIIQTIHETYLRSGSDIVTTSSYQASYQGLCDYGLSQEEAEKMIALTVSLAKNAREKVWQELSEKEKQVRPYPLISGDVGPYAAYLADGSEYTGNYGQLDKEVLKDFHRSRIKILVDEGSDLLALETIPNFLEAQALVELLQEEFPSVEAYMSFTAQNGTTISDGTAIEEVAELIDKASQILALGINCSSPSVYSSLLKKIADITDKPLVTYPNSGEVYDGQHQMWTQSADISHTLLENTKIWHTFGAKVVGGCCRTRPNDIESLSRGLREEGHHHHHH	soluble
MSLGRVTITAVAREAGVSAITVSRYFNQPEQVSPELRERIAAVVNALGYVPNLVAGGLASARSRVVAMVIPNISGPIFANTIQGFSDTLSQHGFQLLLASSYFSAEQEESAVRAFLGWSPAALVLTSRFHSPATEKMIEQTDVPVIETWDHQPERSPIQIGFSHYDVGVTAARYLYDKGYRRIAFVQNSIAGDFSALERRDGYIATLEGLGIKPWVFVPDAGRAPFEAGKQAMETLMSQTPRPDAIFFANDNLAAGALLASQRAGLHIPKDCAVMGFGDYAFAEMMLPSLTTIKPPALEIGVLAATRVLESLGVLPVEGDIQRLNLLECRLVERESTEGHHHHHH	soluble
MSLGSIPNDIKVPLVYIEIDNSNALSGTPALAQKVLVIGQQLGTGTASPLTLNRITNSESQMDALFGKGSMLARSLKMFRKSNDYTDVYALGVADLSAGSAAKGEITIAATTAKAGVIALLIAGESVQVGVDEAATAATIATAMIAKINANTNLPVTAALKAATTETVELTAKWKGQTTNDIDIRYNYYDGEQLPQGVTLTVVEMTGGAGTPDMDAVIAAIPNEWYNHIVMPYNDTQSMNKLRDELVNRWGPLKMIEGIAYTAFRGTFAESGAFGVARNDYLFTCMGTNKAPHSPWEWAAAYAGQASYSLGIDPARPLQTLVMTSLLPPAKEIQWDPTERNLLLGDGIATYMVTPSGEVAIEREVSMYRENSYGDPDPSYLDITTPATLGYLRYSLRVMVTNRFPRHKLAGDDVLARLDPGQPVVTPKIMRNAMLELANNDWVPKGLMEDFDGFKETLEVYRDSSDQNRLNCVFKPDIVNQFRIFAALMQFKL	not soluble
MSLGSRKKFGATYMTTNNRFYEIINDEIRSVVESNGDILVTRDAALDKNKQMQQIYEFIKLKVKAIFINPVDWKQIKPALIAAKNAGIPVIVVDTPVYDDKLVACTVISDNYDAGVQCAKYLMKSKSKANIMLIEHSKAKSGIDRIKGFVDTIGASKQYKIVAAGDSEGQLDKTMSLVDDLIKKHTNVDAIMALNDPSALGALAALKENGLLGKVMVFGVDGSPEAKTMIHDGFMTATSAQFPNKIGHIAAEKAYDILKGKRLKRDVIVPISLISKENLLKYEISGWKEGHHHHHH	soluble
MSLGTPVTLRMDTTDADGRITLGDLFDGVSGPAANVVVAARMSATAVLEAGQVQMSARRAGYVWTNANGVRRIIVREGVDNGGVSSSAAPGAQLAGARLAGAPRANVEVLPYARSLSAGEIVQPQDLIWVKMAGAPADAPRDADAVIGLAAKRPLREGAPVGMKDVAAAQVIKSGDLITITYEDGGISLSLQGKAMAAAAAGDVFAVQNTLSKKIIQAVAVGPGAAAVGPQEGHHHHHH	not soluble
MSLHATMEDVAKLAGVSLKSVSRVINAEPHVSAKLRAKVEAAIAELNYVPDTAARSLAGSRAFIVGLLFDNPSPNYTMNIQKGVYETCRDQQHHLRIDNIDSTVPAEKFEAQLAAMVRNSRCDGFVLTPPLTDNVVLLDFLDRSGIRYVRIAPDIQPDRSPGVCIDDAAAAAAAARHLWELGHRRFAVVRGPASHGAAGRRRQGFIDELHRLGAENPIIEAEGNFSFESGIAAGAKVLAATPRPTAIFAANDDSAAGVMVACSQAGLKVPNDVSVCGFDDSWVAKSVWPYLTTVYQPIEEMGRAAAALLLRRDEPDNVLHELDFSLVVRASTAEGHHHHHH	soluble
